The record followed here is patent US20220411514A1, “ANTI-GAL3 ANTIBODIES AND METHODS OF USE FOR INSULIN RESISTANCE” (TrueBinding, Inc., priority 2021, published 2022).

Numbering of substitutions follows the chain as printed.

For the test, the target named is Human Galectin-3 protein (Acro Biosystems, GA3-H5129) (human) (UniProt P17931). As to the kind of experiment: ELISA, INSR binding to coated Gal3 with 3 ug/mL antibody. (An ELISA detects its analyte on a solid surface through an enzyme-linked reagent.)
Chain of Human Galectin-3 protein (Acro Biosystems, GA3-H5129) (human) (P17931 2-250): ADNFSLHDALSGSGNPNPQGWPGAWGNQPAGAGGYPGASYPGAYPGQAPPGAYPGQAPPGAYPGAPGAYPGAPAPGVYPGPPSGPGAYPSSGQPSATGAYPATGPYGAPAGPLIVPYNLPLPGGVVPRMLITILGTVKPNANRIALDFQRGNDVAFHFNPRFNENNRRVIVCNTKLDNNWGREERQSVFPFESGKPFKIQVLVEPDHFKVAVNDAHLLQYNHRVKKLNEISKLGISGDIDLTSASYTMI

B1: 20D11.2C6 (antibody, V domains shown)
VH: EVQLQQSGPELVKPGASVKISCKASGYTFTDFYINWVKQSHGKSLEWIGDINPKNGGINYNPKFKIKATLTVDKSSSTSYMDLRGLTSEDSAVYYCTSGYGFPYWGQGTLVTVSA
VL: DIQMNQSPSSLSASLGDTITITCRASQNIYIWLSWYQQKPGNIPKLLIYKASNLHTGVPSRFSGSGSGTDFTLTISTLQPEDIATYFCLQGQSYPLTFGAGTKLEMKR
Molecule B1 gave a Gal3-INSR binding left, % of unblocked sample of less than 5%.

B2: 2D10.2B2 (antibody, V domains shown)
VH: QVQLQQSGPELVKPGASVKISCKASGYTFTDYYINWVKQRPGQGLEWIGWIYPGSNDTKYNEKFKGKATLTVDTSSSTAYMQLGSLTSEDSAVYFCANYFGCSGWFFDVWGTGTTVTVSS
VL: DIVMTQAAFSNPVTLGTSASISCRSSKSLLHSDGITYLYWYLQRPGQSPQLLIYRMSNLASGVPDRFSGSGSGTDFTLRISRVEAEDVGVYYCAQMIEFPLTFGAGTILELKR
In the case of B2, the Gal3-INSR binding left, % of unblocked sample was less than 5%.

B3: 4A11.2B5 (antibody, V domains shown)
VH: QVQLQQSGPELVKPGASVKISCKASGYSFTNYYIHWVKQRPGQGLEWIGWIYPGSGNTNYNEKFKGKATLTADTSSSTTNMQLSSLTSEDSAVYYCSTAPGGFDVWGSGTTVTVSS
VL: B2 VL with I97L, I108K
B3: the Gal3-INSR binding left, % of unblocked sample is less than 5%.

B4: 6H6.2D6 (antibody, V domains shown)
VH: QIQLVQSGPELKKPGETVKISCKASGYTFTTYGMSWVKQAPGKGLKWMAWINTYSGVPTYADDFKGRFAFSLETSASTAYLQINNLTNEDTATYFCARGPYAMDYWGQGTSVTVSS
VL: DIQMTQTTSSLSASLGDRVTISCSASQGISNYLNWYQQKPDGTVKLLIYYTSSLHSGVPSRFSGSGSGTDYSLTISNLEPEDIATYYCQQYSELPYTFGSGTKLEIKR
As for B4, the Gal3-INSR binding left, % of unblocked sample is less than 5%.
